Molecular target: T1, WT-EphB1-YFP (mouse EphB1 C-terminal YFP-tagged) (mouse, UniProt Q8CBF3 18-984)
T1 sequence (looked up): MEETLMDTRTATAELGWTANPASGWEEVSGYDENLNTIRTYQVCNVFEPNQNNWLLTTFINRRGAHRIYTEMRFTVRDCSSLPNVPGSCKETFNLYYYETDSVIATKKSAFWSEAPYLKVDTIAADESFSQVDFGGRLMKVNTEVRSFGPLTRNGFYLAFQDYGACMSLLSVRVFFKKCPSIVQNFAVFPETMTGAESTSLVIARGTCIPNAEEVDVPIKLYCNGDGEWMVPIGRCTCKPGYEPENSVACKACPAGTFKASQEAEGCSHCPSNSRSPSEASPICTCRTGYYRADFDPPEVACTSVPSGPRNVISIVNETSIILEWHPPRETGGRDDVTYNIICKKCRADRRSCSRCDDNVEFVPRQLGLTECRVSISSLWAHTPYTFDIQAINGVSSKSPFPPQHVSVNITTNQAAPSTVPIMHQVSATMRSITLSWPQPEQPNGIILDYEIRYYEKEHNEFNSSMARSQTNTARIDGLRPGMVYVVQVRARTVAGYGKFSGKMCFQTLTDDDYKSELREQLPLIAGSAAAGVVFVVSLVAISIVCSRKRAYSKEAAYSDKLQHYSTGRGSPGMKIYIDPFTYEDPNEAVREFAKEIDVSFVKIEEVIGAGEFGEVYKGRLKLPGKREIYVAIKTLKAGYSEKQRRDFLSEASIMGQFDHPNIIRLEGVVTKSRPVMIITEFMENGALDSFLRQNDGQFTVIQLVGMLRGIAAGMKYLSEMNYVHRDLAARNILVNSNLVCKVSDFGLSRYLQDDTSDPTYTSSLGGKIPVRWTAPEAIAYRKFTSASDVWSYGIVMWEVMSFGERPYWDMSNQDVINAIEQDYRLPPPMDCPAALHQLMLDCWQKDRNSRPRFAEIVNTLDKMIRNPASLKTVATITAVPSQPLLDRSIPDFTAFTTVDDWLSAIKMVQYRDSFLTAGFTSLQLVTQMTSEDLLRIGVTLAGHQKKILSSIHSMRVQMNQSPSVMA
Experiment: FRET or BRET

B1: WT-Cav-1-CFP (C-terminal CFP-tagged Cav-1) (natural protein, UniProt Q03135 1-178, looked up)
chain: MSGGKYVDSEGHLYTVPIREQGNIYKPNNKAMADELSEKQVYDAHTKEIDLVNRDPKHLNDDVVKIDFEDVIAEPEGTHSFDGIWKASFTTFTVTKYWFYRLLSALFGIPMALIWGIYFAILSFLHIWAVVPCIKSFLIEIQCISRVYSIYVHTVCDPLFEAVGKIFSNVRINLQKEI
- fold FRET intensity against EphB1^∆808-815-YFP with WT-Cav-1-CFP: 4 fold
